± gives the standard deviation of the averaged measurements.
B1: library; a variant is named by its letters at N, in order (parent)
chain: GCUGUCACCGAGAAACUGUGAAGUAUAUCUUAAACCUGGGCACUUAAAAGAUAUAUGGAGUUAGUAGUGCAACCUGCUCGGUCUGAUGAGUCCNNNNNNGGACGAAACAGC

How the values were obtained:
cyclic di-GMP [1] = variants of: B1; experiment: FACS-Seq fitted mean relative fluorescence mCherry/BFP without ligand (log10 relative fluorescence); HEK293T; ligand: cyclic di-GMP (c-di-GMP-II aptamer); higher = higher reporter protein expression; details: ligand present: no
Method in brief: (§1)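 To measure fluorescence, a normal distribution was fitted to read counts across sorted bins. The reporter libraries were HEK293T cells transduced by lentivirus with mCherry under ribozyme-switch control and an EF1α-BFP marker, enriched and then kept with or without ligand for 48 h. Sorting used 6 mCherry/BFP bins, and bin genomic DNA was PCR-amplified and sequenced on MiSeq. Fitted means of log10(mCherry/BFP) were scaled to five spiked-in control ribozymes.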

cyclic di-GMP [2] = variants of: B1; experiment: normalized RNA/DNA level without ligand (relative to sTRSVctl = 100) (log10 (% of sTRSVctl)); HEK293T; ligand: cyclic di-GMP (c-di-GMP-II aptamer); higher = less ribozyme self-cleavage, higher mRNA level; details: reporter: mCherry (pCS4076), ligand present: no
Method in brief: (§2)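 Library plasmids encoding reporter-linked ribozyme switches (mCherry, or eGFP for some folinic acid experiments) were transfected into HEK293T at 4 µg per 6-well well. Ligand, when used, was added 1 h before transfection. Total RNA was extracted with EDTA 72 h later, then reverse-transcribed, amplified, barcoded and sequenced. RNA level was RNA reads over DNA reads, divided by a spiked-in non-cleaving control (or the top 25 sequences), ×100, log10; only sequences with ≥100 DNA reads were kept.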

cyclic di-GMP [3] = variants of: B1; experiment: FACS-Seq fitted mean relative fluorescence mCherry/BFP with ligand (log10 relative fluorescence); HEK293T; ligand: cyclic di-GMP (c-di-GMP-II aptamer); ligand concentration (+) FACS-Seq: 1 mM; higher = higher reporter protein expression; details: ligand present: yes
Method in brief: as §1

cyclic di-GMP [4] = variants of: B1; experiment: normalized RNA/DNA level with ligand (relative to sTRSVctl = 100) (log10 (% of sTRSVctl)); HEK293T; ligand: cyclic di-GMP (c-di-GMP-II aptamer); ligand concentration (+) RNA-Seq: 1 mM; higher = less ribozyme self-cleavage, higher mRNA level; details: reporter: mCherry (pCS4076), ligand present: yes
Method in brief: as §2

Variant | FACS-Seq fitted mean (log10) (cyclic di-GMP [1]) | normalized RNA/DNA level without ligand (log10) (cyclic di-GMP [2]) | FACS-Seq fitted mean (log10) (cyclic di-GMP [3]) | normalized RNA/DNA level with ligand (log10) (cyclic di-GMP [4])
AUAGUA | 0.0378 ± 0.13 | 1.5 ± 0.034 | 0.3053 ± 0.00099 | 1.65 ± 0.046
CCAGUU | 0.0604 ± 0.26 | 1.69 ± 0.04 | 0.36 ± 0.0063 | 1.87 ± 0.077
CUCGGA | -0.14 ± 0.19 | 1.58 ± 0.076 | 0.203 ± 0.14 | 1.81 ± 0.14
CUCCUA | -0.0767 ± 0.066 | 1.44 ± 0.12 | 0.0398 ± 0.14 | 1.68 ± 0.14
UCUGAU | -0.331 ± 0.024 | 1.6 ± 0.061 | -0.0535 ± 0.0022 | 1.83 ± 0.14
CCGGAC | -0.253 ± 0.11 | 1.62 ± 0.034 | -0.0326 ± 0.0056 | 1.75 ± 0.086
GAAAUU | -0.0957 ± 0.14 | 1.5921 ± 0.00088 | 0.215 ± 0.096 | 1.78 ± 0.11
CAAGAA | -0.432 ± 0.1 | 1.23 ± 0.12 | -0.059 ± 0.057 | 1.48 ± 0.13
AGUGCC | 0.324 ± 0.079 | 1.82 ± 0.11 | 0.275 ± 0.078 | 1.92 ± 0.15
UGCGUU | -0.0716 ± 0.19 | 1.691 ± 0.0015 | 0.15 ± 0.093 | 1.9 ± 0.096
AGCUUG | -0.0154 ± 0.14 | 1.59 ± 0.041 | 0.223 ± 0.0032 | 1.81 ± 0.14
GCUCUA | -0.242 ± 0.011 | 1.64 ± 0.039 | 0.0781 ± 0.02 | 1.8 ± 0.025
ACUGUA | -0.443 ± 0.033 | 1.51 ± 0.076 | -0.138 ± 0.021 | 1.76 ± 0.094
GUCUUG | -0.245 ± 0.061 | 1.61 ± 0.052 | 0.124 ± 0.019 | 1.77 ± 0.12
GAGAGA | -0.796 ± 0.023 | 1.61 ± 0.037 | -0.733 ± 0.053 | 1.72 ± 0.086
UUGCGU | -0.322 ± 0.017 | 1.69 ± 0.035 | -0.00149 ± 0.0032 | 1.86 ± 0.084
AAUGGG | -0.71 ± 0.015 | 1.4 ± 0.11 | -0.453 ± 0.035 | 1.57 ± 0.076
UCUGAA | -0.341 ± 0.042 | 1.51 ± 0.079 | -0.0714 ± 0.032 | 1.73 ± 0.099
CGGUAU | -0.696 ± 0.0075 | 1.35 ± 0.14 | -0.413 ± 0.0071 | 1.51 ± 0.14
UGCAUG | -0.116 ± 0.0019 | 1.734 ± 0.0063 | 0.0785 ± 0.1 | 1.85 ± 0.13
AAUGAU | -0.104 ± 0.17 | 1.581 ± 0.0096 | 0.206 ± 0.048 | 1.76 ± 0.034
GACAAG | -0.339 ± 0.07 | 1.55 ± 0.029 | -0.0999 ± 0.034 | 1.72 ± 0.084
ACGAUU | -0.694 ± 0.056 | 1.2 ± 0.13 | -0.341 ± 0.036 | 1.41 ± 0.19
ACAGAG | -0.3716 ± 0.0034 | 1.44 ± 0.14 | -0.0973 ± 0.031 | 1.59 ± 0.052

Variant | FACS-Seq fitted mean (log10) (cyclic di-GMP [1]) | normalized RNA/DNA level without ligand (log10) (cyclic di-GMP [2]) | FACS-Seq fitted mean (log10) (cyclic di-GMP [3]) | normalized RNA/DNA level with ligand (log10) (cyclic di-GMP [4])
CAUCGA | -0.063 ± 0.043 | 1.64 ± 0.057 | 0.144 ± 0.0063 | 1.78 ± 0.07
AAUAGU | -0.33379 ± 0.00027 | 1.6 ± 0.034 | 0.0812 ± 0.061 | 1.74 ± 0.11
AUUAAA | -0.425 ± 0.11 | 1.53 ± 0.048 | -0.0171 ± 0.053 | 1.71 ± 0.12
UUUAAU | 0.192 ± 0.051 | 1.698 ± 0.015 | 0.405 ± 0.0074 | 1.84 ± 0.08
CUCUUA | -0.241 ± 0.082 | 1.46 ± 0.067 | -0.0535 ± 0.053 | 1.65 ± 0.11
GUGGAU | -0.528 ± 0.045 | 1.52 ± 0.093 | -0.192 ± 0.024 | 1.72 ± 0.072
UCUAAA | -0.692 ± 0.041 | 1.495 ± 0.0055 | -0.441 ± 0.055 | 1.74 ± 0.15
ACGGUU | -0.529 ± 0.031 | 1.22 ± 0.074 | -0.237 ± 0.11 | 1.4 ± 0.1
AGUAAU | 0.353 ± 0.055 | 1.7 ± 0.006 | 0.4462 ± 0.0042 | 1.83 ± 0.097
CCAGGC | -1.034 ± 0.0013 | 1.636 ± 0.0075 | -0.924 ± 0.11 | 1.76 ± 0.15
ACCUGA | -0.424 ± 0.033 | 1.52 ± 0.032 | -0.159 ± 0.035 | 1.72 ± 0.1
GAAGAU | -0.28 ± 0.1 | 1.5 ± 0.088 | 0.0337 ± 0.016 | 1.65 ± 0.14
UGACGC | -0.22 ± 0.01 | 1.73 ± 0.027 | 0.123 ± 0.016 | 1.84 ± 0.17
AGGGAG | -0.66 ± 0.02 | 1.6 ± 0.05 | -0.378 ± 0.013 | 1.73 ± 0.084
AAGACG | -0.185 ± 0.037 | 1.54 ± 0.084 | 0.133 ± 0.15 | 1.73 ± 0.097
CAUUUA | -0.573 ± 0.012 | 1.32 ± 0.088 | -0.291 ± 0.0053 | 1.51 ± 0.1
GAAGGA | -0.325 ± 0.067 | 1.44 ± 0.093 | 0.0781 ± 0.006 | 1.59 ± 0.067
GAGCCU | -0.783 ± 0.038 | 1.79 ± 0.072 | -0.638 ± 0.064 | 1.89 ± 0.12
UAAGUG | 0.0931 ± 0.039 | 1.61 ± 0.022 | 0.27 ± 0.01 | 1.78 ± 0.12
GAACGA | -0.276 ± 0.045 | 1.46 ± 0.1 | -0.0281 ± 0.066 | 1.64 ± 0.072
CUUCAA | -0.32 ± 0.059 | 1.43 ± 0.099 | 0.136 ± 0.056 | 1.64 ± 0.083
CCCCCA | -0.0821 ± 0.078 | 1.71 ± 0.046 | 0.187 ± 0.091 | 1.83 ± 0.14
GCACAA | -0.339 ± 0.051 | 1.41 ± 0.051 | 0.0543 ± 0.037 | 1.62 ± 0.11
GAUCGA | -0.635 ± 0.0097 | 1.64 ± 0.033 | -0.425 ± 0.16 | 1.78 ± 0.094

Variant | FACS-Seq fitted mean (log10) (cyclic di-GMP [1]) | normalized RNA/DNA level without ligand (log10) (cyclic di-GMP [2]) | FACS-Seq fitted mean (log10) (cyclic di-GMP [3]) | normalized RNA/DNA level with ligand (log10) (cyclic di-GMP [4])
CCUCCC | -0.363 ± 0.069 | 1.81 ± 0.025 | -0.153 ± 0.079 | 1.89 ± 0.12
UGAUGA | -0.253 ± 0.0055 | 1.58 ± 0.033 | 0.00931 ± 0.037 | 1.8 ± 0.099
CCCCUA | -0.244 ± 0.03 | 1.56 ± 0.054 | 0.111 ± 0.091 | 1.74 ± 0.093
ACCAAG | -0.4336 ± 0.0033 | 1.54 ± 0.1 | -0.172 ± 0.048 | 1.71 ± 0.09
GGGGGC | -0.722 ± 0.011 | 1.77 ± 0.043 | -0.503 ± 0.012 | 1.87 ± 0.12
AAUAGG | -0.474 ± 0.0071 | 1.5 ± 0.069 | -0.162 ± 0.0064 | 1.68 ± 0.12
CAAAAU | -0.237 ± 0.17 | 1.45 ± 0.11 | 0.0784 ± 0.017 | 1.65 ± 0.085
AGCAUG | -0.472 ± 0.038 | 1.53 ± 0.031 | -0.236 ± 0.053 | 1.71 ± 0.055
CUGUAU | -0.00585 ± 0.097 | 1.56 ± 0.039 | 0.2727 ± 0.0019 | 1.72 ± 0.07
AAACGG | -0.275 ± 0.019 | 1.5 ± 0.12 | 0.0867 ± 0.11 | 1.7 ± 0.1
CACUUA | -0.231 ± 0.015 | 1.43 ± 0.04 | -0.0377 ± 0.081 | 1.59 ± 0.11
UCUGUA | -0.293 ± 0.01 | 1.57 ± 0.089 | 0.0285 ± 0.0098 | 1.77 ± 0.041
AUGGAU | -0.631 ± 0.017 | 1.51 ± 0.057 | -0.404 ± 0.012 | 1.67 ± 0.12
CGUGGA | -0.426 ± 0.029 | 1.41 ± 0.1 | -0.0424 ± 0.071 | 1.62 ± 0.035
CCCAUA | -0.471 ± 0.0071 | 1.4 ± 0.11 | -0.164 ± 0.0037 | 1.65 ± 0.09
CAAUAU | -0.659 ± 0.028 | 1.49 ± 0.061 | -0.365 ± 0.019 | 1.67 ± 0.11
AAAACG | -0.442 ± 0.098 | 1.5 ± 0.072 | -0.105 ± 0.12 | 1.71 ± 0.079
GAACCC | 0.196 ± 0.15 | 1.82 ± 0.026 | 0.39 ± 0.019 | 1.91 ± 0.12
GUCCUG | -0.102 ± 0.019 | 1.68 ± 0.022 | 0.19 ± 0.09 | 1.83 ± 0.14
CCGCCA | -0.184 ± 0.045 | 1.645 ± 0.0073 | 0.127 ± 0.058 | 1.85 ± 0.14
UAGGCU | -0.161 ± 0.14 | 1.75 ± 0.031 | 0.0436 ± 0.011 | 1.88 ± 0.11
CGCUGA | -0.177 ± 0.072 | 1.53 ± 0.057 | 0.0499 ± 0.0086 | 1.72 ± 0.067
UUAAUG | -0.155 ± 0.022 | 1.6 ± 0.035 | 0.183 ± 0.0019 | 1.79 ± 0.071
ACAUAG | -0.486 ± 0.035 | 1.41 ± 0.11 | -0.109 ± 0.082 | 1.66 ± 0.05
